In US20080108569A1, “Compositions and Methods for Treating Diseases Associated With Phlpp” (The Regents of the University of California, priority 2005, published 2008) one finds increase in Akt phosphorylation and increase in Ser473 phosphorylation on siRNA knock down of PHLPP2 in H157 cells data, which are given here for two substances.

The target in this test is endogenous Akt (UniProt P31749). The experiment in a line: cell-based or functional assay.
Chain of endogenous Akt (P31749 whole entry): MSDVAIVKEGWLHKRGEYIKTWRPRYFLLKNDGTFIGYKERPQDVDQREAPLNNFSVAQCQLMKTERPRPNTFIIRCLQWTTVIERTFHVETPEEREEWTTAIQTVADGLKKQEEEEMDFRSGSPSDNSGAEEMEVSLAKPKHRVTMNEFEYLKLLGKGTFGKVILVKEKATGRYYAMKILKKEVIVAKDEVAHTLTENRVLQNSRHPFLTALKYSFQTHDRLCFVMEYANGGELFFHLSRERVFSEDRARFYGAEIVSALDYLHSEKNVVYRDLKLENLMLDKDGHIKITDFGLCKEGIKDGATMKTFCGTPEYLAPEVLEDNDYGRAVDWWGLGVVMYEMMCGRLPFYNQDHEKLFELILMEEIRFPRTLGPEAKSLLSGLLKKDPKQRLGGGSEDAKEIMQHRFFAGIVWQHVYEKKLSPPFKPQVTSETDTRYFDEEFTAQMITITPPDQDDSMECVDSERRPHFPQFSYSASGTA

In the case of “endogenous PHLPP2 (from UniProt Q6ZVD8 1-1323)”, the increase in Akt phosphorylation at Ser 473 on siRNA knock down of PHLPP2 in 293T cells was 2 fold.
“endogenous PHLPP2 (from UniProt Q6ZVD8 1-1323) (enzyme)” displayed an increase in Ser473 phosphorylation on siRNA knock down of PHLPP2 in H157 cells of 4 fold.
